Target: T1, recombinant His-tagged AGO2 protein (human Argonaute 2, baculovirus-expressed) (human, UniProt Q9UKV8 1-859)
T1 construct: Expressed in High Five insect cells and purified on nickel resin; also called His-AGO2; HisAGO2
Test: PepSpot peptide array incubated with recombinant His-tagged AGO2 (2 µg), detected with anti-His-HRP
Method: The association rate constant (Kₐ), dissociation rate constant (Kd), and equilibrium dissociation constant (KD) were calculated and presented in the chart (bottom).

T1 sequence (Q9UKV8 other isoform, or with tags, fused parts or gaps limits assumed): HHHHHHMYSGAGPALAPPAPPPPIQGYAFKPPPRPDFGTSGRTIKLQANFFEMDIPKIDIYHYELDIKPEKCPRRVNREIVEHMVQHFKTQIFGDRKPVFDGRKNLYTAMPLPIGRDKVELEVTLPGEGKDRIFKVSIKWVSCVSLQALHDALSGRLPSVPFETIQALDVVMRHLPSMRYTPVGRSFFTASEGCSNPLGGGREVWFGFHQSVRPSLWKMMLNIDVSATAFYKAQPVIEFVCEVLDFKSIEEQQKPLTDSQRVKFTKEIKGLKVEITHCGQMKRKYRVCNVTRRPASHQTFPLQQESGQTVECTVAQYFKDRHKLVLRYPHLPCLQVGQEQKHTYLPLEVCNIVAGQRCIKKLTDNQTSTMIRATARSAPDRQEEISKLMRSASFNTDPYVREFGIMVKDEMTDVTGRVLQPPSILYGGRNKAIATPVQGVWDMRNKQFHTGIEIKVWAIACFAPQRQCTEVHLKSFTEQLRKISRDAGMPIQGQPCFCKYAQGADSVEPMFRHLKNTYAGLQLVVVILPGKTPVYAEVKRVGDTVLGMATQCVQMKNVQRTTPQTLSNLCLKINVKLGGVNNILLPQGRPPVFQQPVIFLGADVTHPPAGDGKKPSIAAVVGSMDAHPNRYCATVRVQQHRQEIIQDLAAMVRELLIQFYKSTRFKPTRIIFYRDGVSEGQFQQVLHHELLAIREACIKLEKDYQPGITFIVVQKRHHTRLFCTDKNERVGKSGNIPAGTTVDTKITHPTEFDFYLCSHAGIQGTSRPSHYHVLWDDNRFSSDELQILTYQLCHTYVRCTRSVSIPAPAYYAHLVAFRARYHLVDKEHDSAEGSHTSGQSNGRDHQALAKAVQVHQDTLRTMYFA

Row | binding result | Binder
1 | no binding | ELYGAANQDSGVSSY (15-mer of the MSI1 C-terminus spotted on the PepSpot membrane; also called Index 22) [PepSpot array peptide 22]
2 | no binding | QDSGVSSYISAASPA (15-mer of the MSI1 C-terminus spotted on the PepSpot membrane; also called Index 23) [PepSpot array peptide 23]
3 | no binding | VERTPLPSAPVLPEL (15-mer of the MSI1 C-terminus spotted on the PepSpot membrane; also called Index 12) [PepSpot array peptide 12]
4 | no binding | TSPGPMAELYGAANQ (15-mer of the MSI1 C-terminus spotted on the PepSpot membrane; also called Index 21) [PepSpot array peptide 21]

The remaining lines, values behind:

Row | Binder | binding result
5 | LTAIPLTAYGPMAAA (15-mer of the MSI1 C-terminus spotted on the PepSpot membrane; also called Index 14) [PepSpot array peptide 14] | no binding
6 | AAAAAAVVRGTGSHP (15-mer of the MSI1 C-terminus spotted on the PepSpot membrane; also called Index 16) [PepSpot array peptide 16] | no binding
7 | AYGPMAAAAAAAAVV (15-mer of the MSI1 C-terminus spotted on the PepSpot membrane; also called Index 15) [PepSpot array peptide 15] | no binding
8 | SAPVLPELTAIPLTA (15-mer of the MSI1 C-terminus spotted on the PepSpot membrane; also called Index 13) [PepSpot array peptide 13] | no binding

— patent US20200078441A1 (TAIPEI VETERANS GENERAL HOSPITAL, published 2020)
